Results as given in the supplement of paper PMC9112550, “Optimization of the antimicrobial peptide Bac7 by deep mutational scanning” (BMC Biology, 2022).

Each sequence was assayed on Escherichia coli TOP10 (assay: shrunken log2 fold change of peptide-encoding DNA abundance (4.5 h post-induction vs induction); higher = less antimicrobial activity (less host growth inhibition)). Details: time post-induction: 4.5 h; library: site-saturation at positions 5, 18, 19, 20.
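Further: peptides expressed intracellularly from a pBAD plasmid library in pooled LB shake-flask culture, induced with 0.3% L-arabinose, DNA abundance read by NGS, three biological replicates, DESeq2 with apeglm shrinkage.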

| Sequence | shrunken log2 fold change |
| --- | --- |
| RRIRARPPRLPRPRPRPTPNPRP | 0.602 |
| RRIRARPPRLPRPRPRPTQKPRP | -0.0406 |
| RRIRARPPRLPRPRPRPTQMPRP | 0.563 |
| RRIRARPPRLPRPRPRPTRAPRP | 1 |
| RRIRARPPRLPRPRPRPTRFPRP | 0.737 |
| RRIRARPPRLPRPRPRPTTFPRP | 0.177 |
| RRIRARPPRLPRPRPRPTTSPRP | 0.292 |
| RRIRARPPRLPRPRPRPTTVPRP | 0.45 |
| RRIRARPPRLPRPRPRPTVGPRP | 0.794 |
| RRIRARPPRLPRPRPRPTVYPRP | -0.00696 |
| RRIRARPPRLPRPRPRPTWKPRP | -0.0384 |
| RRIRARPPRLPRPRPRPTWMPRP | 0.221 |
| RRIRARPPRLPRPRPRPTYYPRP | -0.119 |
| RRIRARPPRLPRPRPRPVCEPRP | 0.836 |
| RRIRARPPRLPRPRPRPVDQPRP | 0.607 |
| RRIRARPPRLPRPRPRPVFAPRP | 0.561 |
| RRIRARPPRLPRPRPRPVHDPRP | 0.146 |
| RRIRARPPRLPRPRPRPVHMPRP | -0.00775 |
| RRIRARPPRLPRPRPRPVKRPRP | 0.138 |
| RRIRARPPRLPRPRPRPVKYPRP | -0.166 |
| RRIRARPPRLPRPRPRPVLSPRP | 0.26 |
| RRIRARPPRLPRPRPRPVMAPRP | 0.567 |
| RRIRARPPRLPRPRPRPVMEPRP | 1.04 |
| RRIRARPPRLPRPRPRPVMIPRP | 0.0471 |
| RRIRARPPRLPRPRPRPVQSPRP | 0.14 |

| Sequence | shrunken log2 fold change |
| --- | --- |
| RRIRARPPRLPRPRPRPVRPPRP | 0.602 |
| RRIRARPPRLPRPRPRPVTDPRP | -0.0398 |
| RRIRARPPRLPRPRPRPVVEPRP | 0.322 |
| RRIRARPPRLPRPRPRPVWYPRP | -0.395 |
| RRIRARPPRLPRPRPRPVYAPRP | 0.205 |
| RRIRARPPRLPRPRPRPVYLPRP | -0.622 |
| RRIRARPPRLPRPRPRPWAEPRP | 0.264 |
| RRIRARPPRLPRPRPRPWAIPRP | 0.253 |
| RRIRARPPRLPRPRPRPWCNPRP | -0.536 |
| RRIRARPPRLPRPRPRPWDGPRP | 0.72 |
| RRIRARPPRLPRPRPRPWDPPRP | 0.496 |
| RRIRARPPRLPRPRPRPWGKPRP | 0.0748 |
| RRIRARPPRLPRPRPRPWGVPRP | 0.329 |
| RRIRARPPRLPRPRPRPWHQPRP | 0.0524 |
| RRIRARPPRLPRPRPRPWKRPRP | 0.125 |
| RRIRARPPRLPRPRPRPWKWPRP | -0.163 |
| RRIRARPPRLPRPRPRPWLNPRP | -0.175 |
| RRIRARPPRLPRPRPRPWMHPRP | 0.026 |
| RRIRARPPRLPRPRPRPWPAPRP | 0.17 |
| RRIRARPPRLPRPRPRPWPVPRP | 0.558 |
| RRIRARPPRLPRPRPRPWPYPRP | -0.144 |
| RRIRARPPRLPRPRPRPWRIPRP | -0.0489 |
| RRIRARPPRLPRPRPRPWSWPRP | 0.109 |
| RRIRARPPRLPRPRPRPWSYPRP | -0.0574 |
| RRIRARPPRLPRPRPRPWVCPRP | -0.136 |

| Sequence | shrunken log2 fold change |
| --- | --- |
| RRIRARPPRLPRPRPRPWWIPRP | -0.0901 |
| RRIRARPPRLPRPRPRPWWTPRP | 0.239 |
| RRIRARPPRLPRPRPRPWYAPRP | -0.307 |
| RRIRARPPRLPRPRPRPYAGPRP | -0.534 |
| RRIRARPPRLPRPRPRPYCLPRP | -0.729 |
| RRIRARPPRLPRPRPRPYDHPRP | -0.57 |
| RRIRARPPRLPRPRPRPYDSPRP | -0.0577 |
| RRIRARPPRLPRPRPRPYGPPRP | -0.264 |
| RRIRARPPRLPRPRPRPYICPRP | -0.326 |
| RRIRARPPRLPRPRPRPYKTPRP | -0.0275 |
| RRIRARPPRLPRPRPRPYMQPRP | -0.53 |
| RRIRARPPRLPRPRPRPYMTPRP | -0.256 |
| RRIRARPPRLPRPRPRPYNIPRP | -0.159 |
| RRIRARPPRLPRPRPRPYNVPRP | -0.284 |
| RRIRARPPRLPRPRPRPYPCPRP | -0.417 |
| RRIRARPPRLPRPRPRPYQMPRP | -0.396 |
| RRIRARPPRLPRPRPRPYQVPRP | -0.327 |
| RRIRARPPRLPRPRPRPYRHPRP | -0.157 |
| RRIRARPPRLPRPRPRPYSTPRP | -0.563 |
| RRIRARPPRLPRPRPRPYTEPRP | -0.583 |
| RRIRARPPRLPRPRPRPYYCPRP | -0.331 |
| RRIRCRPPRLPRPRPRPAARPRP | 0.392 |
| RRIRCRPPRLPRPRPRPADKPRP | -0.0716 |
| RRIRCRPPRLPRPRPRPAENPRP | 0.000461 |
| RRIRCRPPRLPRPRPRPAERPRP | -0.109 |
